For eight molecules, IC50, Kd and EC50 results are on record in US20260250363A1 (AP BIOSCIENCES, published 2026).

Like-named read-outs stand apart in the source and are kept apart here.

Assay [1] addresses SARS-CoV-2 B.1.617.2 Spike Protein (R&D, Cat. #10878-CV) (SARS-CoV-2, UniProt P0DTC2 16-1211). The assay is described as follows: competition ELISA: blocks biotin-ACE2 binding to coated spike. A general note: An ELISA detects its analyte on a solid surface through an enzyme-linked reagent.
Assay [2] concerns the target SARS-CoV-2 AY.1 Spike Protein (R&D, Cat. #10922-CV) (SARS-CoV-2, UniProt P0DTC2 16-1211). The description is as above.
Assay [3] addresses SARS-CoV-2 Spike Protein, wild type (R&D, Cat. #10549-CV) (SARS-CoV-2, UniProt P0DTC2 16-1211). The description is as above.
Assay [4] concerns the target SARS-CoV-2 C.37 Spike His Protein (R&D, Cat. #10887-CV) (SARS-CoV-2, UniProt P0DTC2 16-1211). Described as above.
Assay [5] addresses T1, SARS-CoV-2 B.1.1.529 Spike Protein (Omicron) (SARS-CoV-2, UniProt P0DTC2 16-1211). The description is as above.
Assay [6] concerns the target T1, SARS-CoV-2 B.1.1.529 Spike Protein …. The assay is described as above. The source holds these as a separate data set.
In assay [7] the target is T2, SARS-CoV-2 Spike Trimer, His Tag (BA.5/Omicron) (MALS verified) (AcroBiosystems, SPN-C522e) (SARS-CoV-2, UniProt P0DTC2 16-1213). The description is as above.
Assay [8] addresses T3, Recombinant SARS-CoV-2 BA.2 Spike (GCN4-IZ) His Protein, CF (R&D, 11109-CV) (SARS-CoV-2, UniProt P0DTC2 16-1211). Described as above.
Assay [9] concerns the target T4, SARS-CoV-2 Spike Trimer, His Tag (BA.4/Omicron) (MALS verified) (AcroBiosystems, SPN-C5229) (SARS-CoV-2, UniProt P0DTC2 16-1213). The assay is described as above.
Assay [10] deals with T1, SARS-CoV-2 B.1.1.529 Spike Protein …. The assay is described as follows: BLI (ForteBio), mAb on AHC sensor, spike in solution. (In general: Biolayer interferometry detects binding as a change in optical thickness at a sensor tip.)
For assay [11], the target named is T3, Recombinant SARS-CoV-2 BA.2 Spike …. The assay is described as above.
Assay [12] has as its target T2, SARS-CoV-2 Spike Trimer, His Tag …. The description is as above.
Assay [13] has as its target T4, SARS-CoV-2 Spike Trimer, His Tag …. The description is as above.
For assay [14], the target named is SARS-CoV-2 AY.1 Spike Protein (R&D, Cat. #10922-CV) (SARS-CoV-2, UniProt P0DTC2 16-1211).
The target of assay [15] is SARS-CoV-2 Spike Protein, wild type (R&D, Cat. #10549-CV) (SARS-CoV-2, UniProt P0DTC2 16-1211). In words: direct ELISA on coated spike; no plateau within the range shown.
Assay [16] addresses SARS-CoV-2 C.37 Spike His Protein (R&D, Cat. #10887-CV) (SARS-CoV-2, UniProt P0DTC2 16-1211). Described as above.

B1: Anti-SARS-CoV-2 #R4-11#R4-1a-10 scFv bsAb (bispecific antibody)
heavy: not shown
light: QSVLTQPPSVSEAPGQRVTISCSGSSSNIANNAVNWYQQLPGQAPKLLIFYDDLLPSWVSDRFSGSKSGTSASLAISGLQSEDEADYYCAAWDDSLNGPVFGGGTKLTVLRQPVAAPSVTLFPPSSEELQANKATLVCLISDFYPGAVTVAWKADSSPVKAGVETTTPSKQSNNKYAASSYLSLTPEQWKSHKSYSCQVTHEGSTVEKTVAPAECS
B1: the IC50 (commonly the point on the concentration scale where inhibition reaches its midpoint) in assay [1] came out at 1.45 nM; in assay [2], 0.715 nM; in assay [3], 2.73 nM; in [4] it was 1.97 nM; in assay [5] it was 2.32 nM.

B2: Anti-SARS-CoV-2 #R4-21-# R4-1a-10 scFv bsAb (bispecific antibody)
heavy: not shown
light: QSALTQPASVSGSPGQSITISCTGTSSDVGGYNYVSWYQQHPGKAPKLIIYDVRNRPSGVSNRFSGSKSGNTASLTISGLQAEDEADYYCGSYTSSSTLGFGGGTKLTVLGQPKAAPSVTLFPPSSEELQANKATLVCLISDFYPGAVTVAWKADSSPVKAGVETTTPSKQSNNKYAASSYLSLTPEQWKSHKSYSCQVTHEGSTVEKTVAPTECS
As for B2, the IC50 is 1.08 nM in [6], 1.37 nM in [7], 0.246 nM in assay [8] and 1.04 nM in [9].

B3: Anti-SARS-CoV-2 #R4-21-# R4-1a-51 scFv bsAb (bispecific antibody)
heavy: not shown
light: QSALTQPASVSGSPGQSITISCTGTSSDVGGYNYVSWYQQHPGKAPKLIIYDVRNRPSGVSNRFSGSKSGNTASLTISGLQAEDEADYYCGSYTSSSTLGFGGGTKLTVLGQPKAAPSVTLFPPSSEELQANKATLVCLISDFYPGAVTVAWKADSSPVKAGVETTTPSKQSNNKYAASSYLSLTPEQWKSHKSYSCQVTHEGSTVEKTVAPTECS
For B3, the IC50 in assay [6] worked out at 1.01 nM; in assay [7], 1.65 nM; in [8], 0.354 nM; in assay [9], 1.14 nM.

B4: anti-SARS-CoV-2 antibody clone R4-21 (antibody, V domains shown)
VH: QVQLVQSGAEVKKPGESLKISCKGSGYSFTSYWIGWVRQMPGKGLEWMGIIYPGDSDTRYSPSFQGQVTISADKSISTAYLQWSSLKASDTAMYYCATQTPYYDSSDYYLGDAFDIWGQGTMVTVSS
VL: QSALTQPASVSGSPGQSITISCTGTSSDVGGYNYVSWYQQHPGKAPKLIIYDVRNRPSGVSNRFSGSKSGNTASLTISGLQAEDEADYYCGSYTSSSTLGFGGGTKLTVLG
As for B4, the Kd (in general, the constant that tells how readily two partners part at equilibrium) in [10] was 2.58 nM; in [11], 2.32 nM; in [12], 2.63 nM; in assay [13], 1.62 nM.

B5: R4-7 (antibody, V domains shown)
VH: QVQLQESGGGLVQPGGSLRLSCAVSGMTLDYYAIAWFRQAPGKEREGVSRISSSDGSTSYADSVKGRFTISRDNAKNTVYLQMNSLKPEDTGVYYCAASPLTYYSGTYYFPGEYDYWGQGTQVTVSS
As to B5, the EC50 – broadly, the concentration needed to bring the measured effect to its halfway point – in assay [14] was found to be 252000 nM; in assay [15] it was 20.4 nM; in [16], 13.3 nM.

B6: Anti-SARS-CoV-2 #R3-1a-1-# R4-1a-10 scFv bsAb (bispecific antibody)
heavy: not shown
light: NFMLTQPHSVSESPGKTVTISCTRSSGSIASKYVQWYQQRPGNSPTTVIYEDDQRPSGVPDRFSASIDSSANTASLTISGLKPEDEADYYCQSYDDNTAVFGGGTHLTVLGQPKAAPSVTLFPPSSEELQANKATLVCLVSDFYPGAVTVAWKADGSPVKVGVETTKPSKQSNNKYAASSYLSLTPEQWKSHRSYSCRVTHEGSTVEKTVAPAECS
In the case of B6, the IC50 in [6] was found to be 1.83 nM; in assay [7], 4.97 nM; in [8] it was 0.803 nM; in assay [9], 3.51 nM.

B7: R3-1a-1/R4-1a-51 scFv (bispecific antibody)
heavy chain with C-terminal scFv: not shown
light chain: NFMLTQPHSVSESPGKTVTISCTRSSGSIASKYVQWYQQRPGNSPTTVIYEDDQRPSGVPDRFSASIDSSANTASLTISGLKPEDEADYYCQSYDDNTAVFGGGTHLTVLGQPKAAPSVTLFPPSSEELQANKATLVCLVSDFYPGAVTVAWKADGSPVKVGVETTKPSKQSNNKYAASSYLSLTPEQWKSHRSYSCRVTHEGSTVEKTVAPAECS
With B7, the IC50 stood at 5.85 nM in assay [6], 11.1 nM in assay [7], 3.31 nM in assay [8] and 7.74 nM in assay [9].

B8: Anti-SARS-CoV-2 #R4-1a-10-#R4-11 scFv bsAb (bispecific antibody)
heavy: not shown
light: QSVLTQPSSVSAAPWQRVTISCSGSDSNIGNNPVNWYQHVPGKAPTLLIYYDNFLASKISDRFSGSKSGTSASLAISGLQSDDEADYYCASWDDSLNGVVFGGGTKLTVLRQPKAAPSVTLFPPSSEELQANKATLVCLISDFYPGAVTVAWKADSSPVKAGVETTTPSKQSNNKYAASSYLSLTPEQWKSHRSYSCQVTHEGSTVEKTVAPTECS
Take B8: the IC50 in [1] was 0.563 nM; in [2] it was 0.349 nM; in [3], 0.857 nM; in assay [4] it was 0.897 nM; in assay [5], 1.06 nM.
